Experimental data as given in paper PMC4345975.

Target: GFP–cyclin A (human) (UniProt P20248)
Assay: fluorescence cross-correlation spectroscopy

Chain of UniProt P20248 (P20248 whole entry): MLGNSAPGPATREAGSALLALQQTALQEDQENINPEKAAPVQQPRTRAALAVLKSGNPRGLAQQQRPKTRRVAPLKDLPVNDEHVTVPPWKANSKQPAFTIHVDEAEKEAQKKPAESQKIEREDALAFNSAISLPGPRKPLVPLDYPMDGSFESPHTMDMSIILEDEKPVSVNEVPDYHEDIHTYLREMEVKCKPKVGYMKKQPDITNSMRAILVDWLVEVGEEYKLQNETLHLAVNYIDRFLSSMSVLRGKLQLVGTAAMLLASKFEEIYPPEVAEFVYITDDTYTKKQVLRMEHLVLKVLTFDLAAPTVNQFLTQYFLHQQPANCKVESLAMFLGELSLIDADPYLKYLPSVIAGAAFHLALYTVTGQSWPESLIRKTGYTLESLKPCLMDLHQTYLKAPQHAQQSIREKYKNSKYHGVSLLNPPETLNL

## mCherry–SAMHD1 (from UniProt Q9Y3Z3 1-626) (natural protein)
  cross-correlation: 9.9%
